Reference: patent US20130189225A1 (ASSOCIATION INSTITUT DE MYOLOGIE, published 2013)

B1: human galectin 3 binding protein (G3BP), native protein of human serum (other)
chain: VNDGDMRLADGGATNQGRVEIFYRGQWGTVCDNLWDLTDASVVCRALGFENATQALGRAAFGQGSGPIMLDEVQCTGTEASLADCKSLGWLKSNCRHERDAGVVCTNETRSTHTLDLSRELSEALGQIFDSQRGCDLSISVNVQGEDALGFCGHTVILTANLEAQALWKEPGSNVTMSVDAECVPMVRDLLRYFYSRRIDITLSSVKCFHKLASAYGARQLQGYCASLFAILLPQDPSFQMPLDLYAYAVATGDALLEKLCLQFLAWNFEALTQAEAWPSVPTDLLQLLLPRSDLAVPSELALLKAVDTWSWGERASHEEVEGLVEKIRFPMMLPEELFELQFNLSLYWSHEALFQKKTLQALEFHTVPFQLLARYKGLNLTEDTYKPRIYTSPTWSAFVTDSSWSARKSQLVYQSRRGPLVKYSSDYFQAPSDYRYYPYQSFQTPQHPSFLFQDKRVSWSLVYLPTIQSCWNYGFSCSSDELPVLGLTKSGGSDRTIAYENKALMLCEGLFVADVTDFEGWKAAIPSALDTNSSKSTSSFPCPAGHFNGFRTVIRPFYLTNSSGVD
notes: also called hu-G3BP; huG3BP

Columns and labels:
[1] = target: rAAV-2 (recombinant adeno-associated virus vector with AAV-2 capsid) (adeno-associated virus serotype 2, UniProt P03135 1-735); experiment: rAAV immobilised on AVB-Sepharose beads incubated with seronegative human serum; Western blot for G3BP
rAAV-2 (recombinant adeno-associated virus vector with AAV-2 capsid), sequence (P03135 whole entry): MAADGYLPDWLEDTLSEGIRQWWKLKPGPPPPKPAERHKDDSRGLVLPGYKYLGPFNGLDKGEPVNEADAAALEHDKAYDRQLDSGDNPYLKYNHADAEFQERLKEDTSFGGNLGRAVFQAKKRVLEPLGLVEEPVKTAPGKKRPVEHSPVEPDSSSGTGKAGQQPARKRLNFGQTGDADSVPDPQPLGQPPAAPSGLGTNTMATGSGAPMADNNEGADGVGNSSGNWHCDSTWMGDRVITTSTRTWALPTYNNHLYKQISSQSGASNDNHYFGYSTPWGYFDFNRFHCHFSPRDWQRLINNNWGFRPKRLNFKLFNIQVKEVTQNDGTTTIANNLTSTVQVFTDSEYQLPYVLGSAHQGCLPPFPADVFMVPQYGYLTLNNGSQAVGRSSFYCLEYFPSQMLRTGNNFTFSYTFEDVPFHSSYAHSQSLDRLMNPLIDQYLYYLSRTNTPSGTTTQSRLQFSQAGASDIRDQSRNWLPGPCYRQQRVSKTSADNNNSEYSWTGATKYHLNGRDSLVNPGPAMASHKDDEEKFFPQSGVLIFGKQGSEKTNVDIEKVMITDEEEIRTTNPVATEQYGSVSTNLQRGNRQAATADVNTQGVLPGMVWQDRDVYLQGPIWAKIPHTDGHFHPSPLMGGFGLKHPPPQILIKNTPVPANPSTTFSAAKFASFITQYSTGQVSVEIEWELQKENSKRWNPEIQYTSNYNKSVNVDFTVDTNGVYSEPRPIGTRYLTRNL

[2] = target: B1; experiment: surface plasmon resonance imagery, rAAV immobilised on glass prism, hu-G3BP injected
[3] = target: T1, human C-reactive protein (CRP), native protein of human serum (human, UniProt P02741 19-224); experiment: rAAV-6 immobilised on AVB-Sepharose incubated with human serum; PAGE and Western blot with human CRP specific antibodies
T1 construct: mature; also called human CRP; human homolog of CRP
T1 sequence: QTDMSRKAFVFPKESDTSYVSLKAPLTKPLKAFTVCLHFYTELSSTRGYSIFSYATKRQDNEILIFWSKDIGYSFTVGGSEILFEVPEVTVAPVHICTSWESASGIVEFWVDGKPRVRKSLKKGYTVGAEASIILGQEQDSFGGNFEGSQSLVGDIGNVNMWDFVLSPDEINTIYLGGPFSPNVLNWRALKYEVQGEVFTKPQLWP

[4] = target: T2, murine G3BP (mouse cyclophilin C-associated protein), native protein of mouse serum (mouse, UniProt Q07797 19-577); experiment: AAV6 incubated with seronegative murine serum, ultracentrifugation, 2D gel
T2 construct: also called G3BP murine protein homolog; CyCAP
T2 sequence: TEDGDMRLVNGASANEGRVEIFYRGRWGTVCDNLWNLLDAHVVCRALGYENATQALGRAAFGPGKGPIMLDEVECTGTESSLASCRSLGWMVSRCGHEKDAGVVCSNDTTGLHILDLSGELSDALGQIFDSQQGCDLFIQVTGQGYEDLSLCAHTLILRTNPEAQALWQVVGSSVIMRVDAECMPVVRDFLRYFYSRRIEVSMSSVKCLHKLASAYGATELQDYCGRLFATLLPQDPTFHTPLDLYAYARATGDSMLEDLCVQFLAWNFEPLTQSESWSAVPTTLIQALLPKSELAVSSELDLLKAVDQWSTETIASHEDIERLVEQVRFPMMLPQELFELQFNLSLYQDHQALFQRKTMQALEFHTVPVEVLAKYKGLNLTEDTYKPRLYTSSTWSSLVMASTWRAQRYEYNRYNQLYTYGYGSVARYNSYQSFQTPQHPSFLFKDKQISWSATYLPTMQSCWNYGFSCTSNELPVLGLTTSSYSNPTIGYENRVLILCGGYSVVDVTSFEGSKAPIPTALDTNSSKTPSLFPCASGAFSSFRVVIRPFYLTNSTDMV

Binder	binding result [1]	Ka [2] [M⁻¹]	binding result [3]	binding result [4]
B1	no binding			
rAAV-6 (recombinant adeno-associated virus vector with AAV-6 capsid) (other) MAADGYLPDWLEDNLSEGIREWWDLKPGAPKPKANQQKQDDGRGLVLPGYKYLGPFNGLDKGEPVNAADAAALEHDKAYDQQLKAGDNPYLRYNHADAEFQERLQEDTSFGGNLGRAVFQAKKRVLEPFGLVEEGAKTAPGKKRPVEQSPQEPDSSSGIGKTGQQPAKKRLNFGQTGDSESVPDPQPLGEPPATPAAVGPTTMASGGGAPMADNNEGADGVGNASGNWHCDSTWLGDRVITTSTRTWALPTYNNHLYKQISSASTGASNDNHYFGYSTPWGYFDFNRFHCHFSPRDWQRLINNNWGFRPKRLNFKLFNIQVKEVTTNDGVTTIANNLTSTVQVFSDSEYQLPYVLGSAHQGCLPPFPADVFMIPQYGYLTLNNGSQAVGRSSFYCLEYFPSQMLRTGNNFTFSYTFEDVPFHSSYAHSQSLDRLMNPLIDQYLYYLNRTQNQSGSAQNKDLLFSRGSPAGMSVQPKNWLPGPCYRQQRVSKTKTDNNNSNFTWTGASKYNLNGRESIINPGTAMASHKDDKDKFFPMSGVMIFGKESAGASNTALDNVMITDEEEIKATNPVATERFGTVAVNLQSSSTDPATGDVHVMGALPGMVWQDRDVYLQGPIWAKIPHTDGHFHPSPLMGGFGLKHPPPQILIKNTPVPANPPAEFSATKFASFITQYSTGQVSVEIEWELQKENSKRWNPEVQYTSNYAKSANVDFTVDNNGLYTEPRPIGTRYLTRPL		~1e+09	no binding	no binding
